From US20260184782A1 (TWIST BIOSCIENCE, published 2026)

T1: recombinant human TIGIT (human, UniProt Q495A1 22-141, limits assumed)
T1 construct: recombinant human TIGIT used in Carterra SPR; also called hTIGIT
T1 sequence (looked up): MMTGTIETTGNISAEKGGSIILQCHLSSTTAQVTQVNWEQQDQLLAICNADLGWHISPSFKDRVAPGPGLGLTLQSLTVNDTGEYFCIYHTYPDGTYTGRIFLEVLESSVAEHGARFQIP


target: T1, recombinant human TIGIT; test: SPR Carterra, average
Experimental: Binding affinities of VHH-Fc proteins to recombinant human TIGIT were measured by SPR using a Carterra instrument (Table 10A). […] Average values reported from measurements from 1-2 samples.

| Kd [nM] | koff [s⁻¹] | kon [M⁻¹ s⁻¹] | Binder |
| --- | --- | --- | --- |
| 47.9 | 0.0108 | 226000 | TIGIT-SC145 (Fc fusion, VHH-Fc fusion in assay) VHH: EVQLVESGGGLVQPGGSLRLSCAASGNTFSGGFTLGYYVMGWFRQAPGKEREFVAAISRSGTLKAYADGVKGRFTISADNSKNTAYLQMNSLKPEDTAVYYCARVEAYGDPLGYWGQGTLVTVSS |
| 41.9 | 0.00561 | 158000 | TIGIT-SC133 (Fc fusion, VHH-Fc fusion in assay) VHH: EVQLVESGGGLVQPGGSLRLSCAASGFTLENNMMGWFRQAPGKEREFVAAISASGTLRAYADSVKGRFTISADNSKNTAYLQMNSLKPEDTAVYYCACGRVSGAFIYFDYWGQGTLVTVSS |
| 45.4 | 0.00708 | 158000 | TIGIT-SC128 (Fc fusion, VHH-Fc fusion in assay) VHH: EVQLVESGGGLVQPGGSLRLSCAASGFIGNYHAMGWFRQAPGKEREFVARITSGGSTYYADSVKGRFTISADNSKNTAYLQMNSLKPEDTAVYYCGGFGNWGQGTLVTVSS |
| 68.7 | 0.00474 | 68900 | TIGIT-SC140 (Fc fusion, VHH-Fc fusion in assay) VHH: EVQLVESGGGLVQPGGSLRLSCAASGNTFSGGFTFDRSWMGWFRQAPGKEREWVASVLRGGYTWYADSVKGRFTISADNSKNTAYLQMNSLKPEDTAVYYCAGDRYYDFWSGPNSGDYWGQGTLVTVSS |
| 44.9 | 0.0249 | 1.09e+06 | TIGIT-SC65 (Fc fusion, VHH-Fc fusion in assay) VHH: EVQLVESGGGLVQPGGSLRLSCAASGFTFGNYDMGWFRQAPGKEREFVAAITGSGRSTYYADSVKGRFTISADNSKNTAYLQMNSLKPEDTAVYYCARGRIAASGTKVYWYFDLWGQGTLVTVSS |
| 41 | 0.0278 | 677000 | TIGIT-SC131 (Fc fusion, VHH-Fc fusion in assay) VHH: EVQLVESGGGLVQPGGSLRLSCAASGDTSEIYDMGWFRQAPGKEREFVAITWNSGRIGSNGFATYADSVKGRFTISADNSKNTAYLQMNSLKPEDTAVYYCARWAVGQAFDLWGQGTLVTVSS |
| 45.6 | 0.00347 | 197000 | TIGIT-SC132 (Fc fusion, VHH-Fc fusion in assay) VHH: EVQLVESGGGLVQPGGSLRLSCAASGFTLENNMMGWFRQAPGKEREFVAAISASGTLRAYADSVKGRFTISADNSKNTAYLQMNSLKPEDTAVYYCATWRPNRGRYYDWYFDLWGQGTLVTVSS |
| 35 | 0.0043 | 123000 | TIGIT-SC149 (Fc fusion, VHH-Fc fusion in assay) VHH: EVQLVESGGGLVQPGGSLRLSCAASGFTLENNMMGWFRQAPGKEREFVAAISRSGTLKAYADSVKGRFTISADNSKNTAYLQMNSLKPEDTAVYYCAKVQGPYCSGGSCYLYTFDLWGQGTLVTVSS |
| 55.2 | 0.00778 | 141000 | TIGIT-SC139 (Fc fusion, VHH-Fc fusion in assay) VHH: EVQLVESGGGLVQPGGSLRLSCAASGFTLENNMMGWFRQAPGKEREFVAAISRSGTLKAYADSVKGRFTISADNSKNTAYLRMNSLKPEDTAVYYCAGLTSGGAFSYYWGQGTLVTVSS |
| 52.6 | 0.00387 | 80100 | TIGIT-SC16 (Fc fusion, VHH-Fc fusion in assay) VHH: EVQLVESGGGLVQPGGSLRLSCAASGTTFSSAAMGWFRQAPGKEREWVASVLRGGYTWYADSVKGRFTISADNSKNTAYLQMNSLKPEDTAVYYCARDPVELGDYWGQGTLVTVSS |
| 39.1 | 0.00116 | 29700 | TIGIT-SC66 (Fc fusion, VHH-Fc fusion in assay) VHH: EVQLVESGGGLVQPGGSLRLSCAASGTTFSSAAMGWFRQAPGKEREWVASVLRGGYTWYADSVKGRFTISADNSKNTAYLQMNSLKPEDTAVYYCVTDPRQWLGHDYWGQGTLVTVSS |
| 66.5 | 0.0213 | 320000 | TIGIT-SC142 (Fc fusion, VHH-Fc fusion in assay) VHH: EVQLVESGGGLVQPGGSLRLSCAASGFSFDRWAMGWFRQAPGKEREFVAAIGWSGNLKAYADSVKGRFTISADNSKNTAYLQMNSLKPEDTAVYYCASGDGYSMDYFDPWGQGTLVTVSS |
| 60.6 | 0.00722 | 119000 | TIGIT-SC182 (Fc fusion, VHH-Fc fusion in assay) VHH: EVQLVESGGGLVQPGGSLRLSCAASGFTFSSSSMGWFRQAPGKEREFVAAINWSGGSTSYADSVKGRFTISADNSKNTAYLQMNSPKPEDTAVYYCAKDRSYSFDYWGQGTLVTVSS |
| 67.3 | 0.0155 | 231000 | TIGIT-SC30 (Fc fusion, VHH-Fc fusion in assay) VHH: EVQLVESGGGLVQPGGSLRLSCAASGRSFSSDWIGWFRQAPGKERELVAAIDWSGGSALYADSVKGRFTISADNSKNTAYLQMNSLKPEDTAVYYCARVNWNNVGWFDPWGQGTLVTVSS |
| 35.1 | 0.0124 | 354000 | TIGIT-SC44 (Fc fusion, VHH-Fc fusion in assay) VHH: EVQLVESGGGLVQPGGSLRLSCAASGSIFGLGAMGWFRQAPGKERELVAITWGGSTTLYADSVKGRFTISADNSKNTAYLQMNSLKPEDTAVYYCATDQGQWLFDFWGQGTLVTVSS |
| 102 | 0.00688 | 67500 | TIGIT-SC137 (Fc fusion, VHH-Fc fusion in assay) VHH: EVQLVESGGGLVQPGGSLRLSCAASGFTLENNMMGWFRQAPGKEREFVAAISRSGTLKAYADSVKGRFTISADNSKNTAYLQMNSLKPEDTAVYYCSLVSGPRWYWGQGTLVTVSS |
| 80.6 | 0.00624 | 80900 | TIGIT-SC27 (Fc fusion, VHH-Fc fusion in assay) VHH: EVQLVESGGGLVQPGGSLRLSCAASGLTFSNYVMGWFRQAPGKEREVVAGILSDGRELYADSVKGRFTISADNSKNTAYLQMNSLKPEDTAVYYCARDVFGEGHWGQGTLVTVSS |
| 51.4 | 0.00216 | 42000 | TIGIT-SC5 (Fc fusion, VHH-Fc fusion in assay) VHH: EVQLVESGGGLVQPGGSLRLSCAASGFAFGDSWMGWFRQAPGKEREWVASVLRGGYTWYADSVKGRFTISADNSKNTAYLQMNSLKPEDTAVYYCARESEGWFDPWGQGTLVTVSS |
| 55.2 | 0.00495 | 90400 | TIGIT-SC183 (Fc fusion, VHH-Fc fusion in assay) VHH: EVQLVESGGGLVQPGGSLRLSCAASGFAFGDSWMGWFRQAPGKEREWVASVLRGGYTWYADSVKGRFTISADNSKNTAYLQMNSLKPEDTAVYYCAKDRSYSFDYWGQGTLVTVSS |
| 55.7 | 0.00258 | 52800 | TIGIT-SC164 (Fc fusion, VHH-Fc fusion in assay) VHH: EVQLVESGGGLVQPGGSLRLSCAASGFTFDRSWMGWFRQAPGKEREFVASVLRGGYTWYADSVKGRFTISADNSKNTAYLQMNSLKPEDTAVYYCTTEGSGWRNWGQGTLVTVSS |
| 59.2 | 0.00287 | 48700 | TIGIT-SC29 (Fc fusion, VHH-Fc fusion in assay) VHH: EVQLVESGGGLVQPGGSLRLSCAASGFTLENNMMGWFRQAPGKERELVAAIDWSGGSTIYADSVKGRFTISADNSKNTAYLQMNSLKPEDTAVYYCARGHDYGDYIAYWGQGTLVTVSS |
| 55.4 | 0.0027 | 48800 | TIGIT-SC53 (Fc fusion, VHH-Fc fusion in assay) VHH: EVQLVESGGGLVQPGGSLRLSCAASGFTFSPSWMGWFRQAPGKEREWVASVLRGGYTWYADSVKGRFTISADNSKNTAYLQMNSLKPEDTAVYYCARESTIVGAIDSWGQGTLVTVSS |
| 41 | 0.00574 | 140000 | TIGIT-SC144 (Fc fusion, VHH-Fc fusion in assay) VHH: EVQLVESGGGLVQPGGSLRLSCAASGFTLENNMMGWFRQAPGKEREFVAAISPSGTLRAYADSVKGRFTISADNSKNTAYLQMNSLKPEDTAVYYCAGIHDSGVPLGNWGQGTLVTVSS |
| 44.6 | 0.000599 | 8760 | TIGIT-SC85 (Fc fusion, VHH-Fc fusion in assay) VHH: EVQLVESGGGLVQPGGSLRLSCAASGRTFSPYTMGWFRQAPGKEREWVAGISQSGGSTAYADSVKGRFTISADNSKNTAYLQMNSLKPEDTAVYYCARDLNAMGDAYDIWGQGTLVTVSS |
| 62 | 0.00814 | 143000 | TIGIT-SC15 (Fc fusion, VHH-Fc fusion in assay) VHH: EVQLVESGGGLVQPGGSLRLSCAASGSILSFNHIGWFRQAPGKEREGVAWIARYDGSTLYADSVKGRFTISADNSKNTAYLQMNSLKPEDTAVYYCARARGGYVDYWGQGTLVTVSS |
| 66.7 | 0.00339 | 50800 | TIGIT-SC204 (Fc fusion, VHH-Fc fusion in assay) VHH: EVQLVESGGGLVQPGGSLRLSCAASGFLFNSYWMVWFRQAPGKEREFVAAIWRSGTLKAYADSVKGRFTISADNSKNTAYLQMNSLKPEDTAVYYCAADVNYGSTWRNWGQGTLVTVSS |
| 48.1 | 0.00168 | 34900 | TIGIT-SC72 (Fc fusion, VHH-Fc fusion in assay) VHH: EVQLVESGGGLVQPGGSLRLSCAASGGLTFSSYAMGWFRQAPGKEREFVAAISWSGGRTYYADSVKGRFTISADNSKNTAYLQMNSLKPEDTAVYYCARWSAKRHSDTMTYYMDVWGQGTLVTVSS |
| 43.9 | 0.00191 | 43700 | TIGIT-SC129 (Fc fusion, VHH-Fc fusion in assay) VHH: EVQLVESGGGLVQPGGSLRLSCAASGPTLGSYVMGWFRQAPGKEREFVAAISGSGDDTYYADSVKGRFTISADNSKNTAYLQMNSLKPEDTAVYYCARWREFPGYYFAIDVWGQGTLVTVSS |
| 73 | 0.00526 | 72000 | TIGIT-SC130 (Fc fusion, VHH-Fc fusion in assay) VHH: EVQLVESGGGLVQPGGSLRLSCAASGPTLGSYVTGWFRQAPGKEREFVAAISGSSDDTYYADSVKGRFTISADNSKNTAYLQMNSLKPEDTAVYYCARWREFPGYYFAIDVWGQGTLVTVSS |
